{"source": "patent US20210363259A1", "about": "(Biogen, published 2021)", "binders": {"B1": {"name": "STX-100 (antibody, human IgG1, kappa, V domains shown)", "VH": "EVQLVESGGGLVQPGGSLRLSCAASGFTFSRYVMSWVRQAPGKGLEWVASISSGGRMYYPDTVKGRFTISRDNAKNSLYLQMNSLRAEDTAVYYCARGSIYDGYYVFPYWGQGTLVTVSS", "VL": "EIVLTQSPATLSLSPGERATLSCSASSSVSSSYLYWYQQKPGQAPRLLIYSTSNLASGIPARFSGSGSGTDFTLTISSLEPEDFAVYYCHQWSTYPPTFGGGTKVEIKR", "notes": "Humanized human IgG1/human kappa monoclonal antibody; It was tested as drug product in citrate/arginine/methionine/PS80 formulations; also called BG00011; BG11"}}, "key": {"[1]": {"molecular_target": "T1, integrin αvβ6 (human, UniProt P06756 31-1048; P18564 22-788)", "T1 construct": "also called the antigen", "T1 sequence (P06756 31-1048, chain 1 of 2)": "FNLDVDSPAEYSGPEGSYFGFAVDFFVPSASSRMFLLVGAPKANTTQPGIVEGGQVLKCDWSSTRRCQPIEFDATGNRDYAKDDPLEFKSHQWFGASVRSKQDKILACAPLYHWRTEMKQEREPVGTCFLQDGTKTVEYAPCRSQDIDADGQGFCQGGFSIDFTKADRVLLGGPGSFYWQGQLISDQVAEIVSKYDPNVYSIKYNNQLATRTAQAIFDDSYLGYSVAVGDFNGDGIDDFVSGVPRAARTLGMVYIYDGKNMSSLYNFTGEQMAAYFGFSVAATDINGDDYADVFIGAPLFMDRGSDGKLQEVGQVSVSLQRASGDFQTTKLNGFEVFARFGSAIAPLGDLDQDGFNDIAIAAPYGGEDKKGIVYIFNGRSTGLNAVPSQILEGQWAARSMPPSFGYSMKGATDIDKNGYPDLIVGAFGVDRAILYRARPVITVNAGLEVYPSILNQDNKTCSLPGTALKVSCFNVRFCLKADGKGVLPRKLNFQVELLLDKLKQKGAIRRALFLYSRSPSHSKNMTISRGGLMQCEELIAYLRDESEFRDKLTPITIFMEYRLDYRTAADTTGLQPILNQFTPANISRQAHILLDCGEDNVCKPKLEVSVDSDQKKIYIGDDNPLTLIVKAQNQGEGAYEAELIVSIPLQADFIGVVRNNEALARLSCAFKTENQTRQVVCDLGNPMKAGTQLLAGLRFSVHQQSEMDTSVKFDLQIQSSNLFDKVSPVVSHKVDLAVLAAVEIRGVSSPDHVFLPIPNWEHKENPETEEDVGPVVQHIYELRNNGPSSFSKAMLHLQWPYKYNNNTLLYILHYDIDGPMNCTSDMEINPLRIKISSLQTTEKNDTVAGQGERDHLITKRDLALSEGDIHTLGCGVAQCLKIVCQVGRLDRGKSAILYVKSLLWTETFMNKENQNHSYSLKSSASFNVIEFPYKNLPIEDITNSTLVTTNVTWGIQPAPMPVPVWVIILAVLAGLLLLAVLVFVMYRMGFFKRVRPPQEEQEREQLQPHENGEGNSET", "T1 sequence (P18564 22-788, chain 2 of 2)": "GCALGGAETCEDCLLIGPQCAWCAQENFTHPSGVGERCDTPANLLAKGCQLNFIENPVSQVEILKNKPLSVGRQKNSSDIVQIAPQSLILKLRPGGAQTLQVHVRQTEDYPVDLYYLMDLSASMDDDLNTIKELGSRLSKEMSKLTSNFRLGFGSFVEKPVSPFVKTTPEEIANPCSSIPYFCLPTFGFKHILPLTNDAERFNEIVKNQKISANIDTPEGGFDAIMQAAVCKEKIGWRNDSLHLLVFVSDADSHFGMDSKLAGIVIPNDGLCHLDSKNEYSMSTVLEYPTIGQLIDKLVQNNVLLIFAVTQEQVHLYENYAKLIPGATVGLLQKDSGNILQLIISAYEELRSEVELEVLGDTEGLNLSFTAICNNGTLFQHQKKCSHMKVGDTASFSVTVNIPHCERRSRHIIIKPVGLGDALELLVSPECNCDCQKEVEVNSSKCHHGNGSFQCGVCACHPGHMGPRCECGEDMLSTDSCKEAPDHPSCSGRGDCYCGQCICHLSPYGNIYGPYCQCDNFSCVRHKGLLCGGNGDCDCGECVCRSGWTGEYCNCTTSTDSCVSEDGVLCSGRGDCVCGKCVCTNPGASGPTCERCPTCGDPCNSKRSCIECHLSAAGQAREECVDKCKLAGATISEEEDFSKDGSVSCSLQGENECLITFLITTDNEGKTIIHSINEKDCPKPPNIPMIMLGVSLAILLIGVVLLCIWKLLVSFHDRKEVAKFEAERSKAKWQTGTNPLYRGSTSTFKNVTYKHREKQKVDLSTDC", "experiment": "potency assay, binding relative to reference standard; stability sample, 3 months at 2-8° C."}, "[2]": {"molecular_target": "T1, integrin αvβ6", "experiment": "potency assay, binding relative to reference standard; stability sample, 6 months at 2-8° C."}, "[3]": {"molecular_target": "T1, integrin αvβ6", "experiment": "potency assay, binding relative to reference standard; stability sample, 9 months at 2-8° C."}, "[4]": {"molecular_target": "T1, integrin αvβ6", "experiment": "potency assay, binding relative to reference standard; stability sample, 12 months at 2-8° C."}, "[5]": {"molecular_target": "T1, integrin αvβ6", "experiment": "potency assay, binding relative to reference standard; stability sample, 24 months at 2-8° C."}, "[6]": {"molecular_target": "T1, integrin αvβ6", "experiment": "DELFIA blocking assay, binding relative to reference standard; stability sample, 1 month at 2-8° C."}, "[7]": {"molecular_target": "T1, integrin αvβ6", "experiment": "DELFIA blocking assay, binding relative to reference standard; stability sample, 0 months at 2-8° C."}, "[8]": {"molecular_target": "T1, integrin αvβ6", "experiment": "DELFIA blocking assay, binding relative to reference standard; stability sample, 18 months at 2-8° C."}}, "data": [{"binder": "B1", "values": [{"measurement": "Potency, % Binding relative to Reference Standard", "setting": "[1]", "result": 102, "unit": "%"}, {"measurement": "Potency, % Binding relative to Reference Standard", "setting": "[2]", "result": 98, "unit": "%"}, {"measurement": "Potency, % Binding relative to Reference Standard", "setting": "[3]", "result": 95, "unit": "%"}, {"measurement": "Potency, % Binding relative to Reference Standard", "setting": "[4]", "result": 100, "unit": "%"}, {"measurement": "Potency, % Binding relative to Reference Standard", "setting": "[5]", "result": 106, "unit": "%"}, {"measurement": "DELFIA Blocking - Binding relative to Reference Standard", "setting": "[6]", "result": 100, "unit": "%"}, {"measurement": "DELFIA Blocking - Binding relative to Reference Standard", "setting": "[7]", "result": 101, "unit": "%"}, {"measurement": "DELFIA Blocking - Binding relative to Reference Standard", "setting": "[8]", "result": 96, "unit": "%"}]}]}
